US20220218790A1 (UNIVERSITY OF SHEFFIELD, published 2022)

Target: T1, PTH receptor of the PTH responsive cell line UMR-106 (rat osteoblastic like cell line) (rat, UniProt P25961 27-591)
T1 sequence (looked up): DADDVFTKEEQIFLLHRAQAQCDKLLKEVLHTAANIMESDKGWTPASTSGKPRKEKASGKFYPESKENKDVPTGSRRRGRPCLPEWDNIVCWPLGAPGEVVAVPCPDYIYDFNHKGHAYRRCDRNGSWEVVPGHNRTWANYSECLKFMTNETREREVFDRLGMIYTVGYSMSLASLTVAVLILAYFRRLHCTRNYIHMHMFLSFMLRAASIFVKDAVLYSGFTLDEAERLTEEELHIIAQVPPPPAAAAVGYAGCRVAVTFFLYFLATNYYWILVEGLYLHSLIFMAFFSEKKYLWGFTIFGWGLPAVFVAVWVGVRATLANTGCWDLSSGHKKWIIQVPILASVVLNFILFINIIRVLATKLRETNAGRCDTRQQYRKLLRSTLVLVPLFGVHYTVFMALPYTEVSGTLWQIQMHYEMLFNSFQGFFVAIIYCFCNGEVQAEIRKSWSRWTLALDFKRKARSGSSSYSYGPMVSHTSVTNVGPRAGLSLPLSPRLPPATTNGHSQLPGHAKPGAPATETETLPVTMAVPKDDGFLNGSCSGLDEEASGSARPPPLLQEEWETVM
Assay: cell-based or functional assay

| Binder | EC50, Dual Luciferase Reporter Assay, UMR-106 cells | fold by which PTH is more potent than this fusion (EC50, Dual Luciferase Reporter Assay) | Dual Luciferase Reporter Assay, fold increase of 14A2c over 14A3b at 100 nM | Dual Luciferase Reporter Assay, fold increase of 14A2c over 14A3b at 500 nM | fold increase in cAMP levels over 14A3b, UMR-106 cells, 500 nM |
| --- | --- | --- | --- | --- | --- |
| 14A7 = PTHss-pp-PTH(1-34)-(g4s)4-GHbp (other) SVSEIQLMHNLGKHLNSMERVEWLRKKLQDVHNFGGGGSGGGGSGGGGSGGGGSFSGSEATAAILSRAPWSLQSVNPGLKTNSSKEPKFTKCRSPERETFSCHWTDEVHHGTKNLGPIQLFYTRRNTQEWTQEWKECPDYVSAGENSCYFNSSFTSIAIPYCIKLTSNGGTVDEKCFSVDEIVQPDPPIALNWTLLNVSLTGIHADIQVRWEAPRNADIQKGWMVLEYELQYKEVNETKWKMMDPILTTSVPVYSLKVDKEYEVRVRSKQRNSGNYGEFSEVLYVTLPQMSQ | 153 nM | 4.7 fold | – | – | – |
| 14A2c = PTHss-pp-PTH (1-34)-(g4s)4-PTHrExt-(g4s)4-GHbp (other) SVSEIQLMHNLGKHLNSMERVEWLRKKLQDVHNFGGGGSGGGGSGGGGSGGGGSDDVMTKEEQIFLLHRAQAQCEKRLKEVLQRPASIMESDKGWTSASTSGKPRKDKASGKLYPESEEDKEAPTGSRYRGRPCLPEWDHILCWPLGAPGEVVAVPCPDYIYDFNHKGHAYRRCDRNGSWELVPGHNRTWANYSECVKFLTNETREREVFDRLGGGGSGGGGSGGGGSGGGGSFSGSEATAAILSRAPWSLQSVNPGLKTNSSKEPKFTKCRSPERETFSCHWTDEVHHGTKNLGPIQLFYTRRNTQEWTQEWKECPDYVSAGENSCYFNSSFTSIAIPYCIKLTSNGGTVDEKCFSVDEIVQPDPPIALNWTLLNVSLTGIHADIQVRWEAPRNADIQKGWMVLEYELQYKEVNETKWKMMDPILTTSVPVYSLKVDKEYEVRVRSKQRNSGNYGEFSEVLYVTLPQMSQ | 579 nM | – | ~1.3 fold | ~1.6 fold | 11 fold |
| 14A3b = GHss-PTH (1-34)-(g4s)4-PTHrExt-(g4s)4-GHbp (other) SVSEIQLMHNLGKHLNSMERVEWLRKKLQDVHNFGGGGSGGGGSGGGGSGGGGSDDVMTKEEQIFLLHRAQAQCEKRLKEVLQRPASIMESDKGWTSASTSGKPRKDKASGKLYPESEEDKEAPTGSRYRGRPCLPEWDHILCWPLGAPGEVVAVPCPDYIYDFNHKGHAYRRCDRNGSWELVPGHNRTWANYSECVKFLTNETREREVFDRLGGGGSGGGGSGGGGSGGGGSFSGSEATAAILSRAPWSLQSVNPGLKTNSSKEPKFTKCRSPERETFSCHWTDEVHHGTKNLGPIQLFYTRRNTQEWTQEWKECPDYVSAGENSCYFNSSFTSIAIPYCIKLTSNGGTVDEKCFSVDEIVQPDPPIALNWTLLNVSLTGIHADIQVRWEAPRNADIQKGWMVLEYELQYKEVNETKWKMMDPILTTSVPVYSLKVDKEYEVRVRSKQRNSGNYGEFSEVLYVTLPQMSQ | 896 nM | – | – | – | – |
